Assay results reported in patent US20150330991A1, “METHOD FOR IMPROVING TARGET AFFINITY OF PEPTIDE” (GWANGJU INSTITUTE OF SCIENCE AND TECHNOLOGY, priority 2012, published 2015).
pKd: −log10 of the molar value.

Legend:
[1] = molecular target: vascular endothelial growth factor receptor 1 (VEGFR1) (UniProt P17948); experiment: SPR (Biacore X), VEGFR1 immobilised on a CM5 chip per paragraph 186; four sensorgrams with fitted curves
[2] = molecular target: vascular endothelial growth factor receptor 1 (VEGFR1) (UniProt P17948); experiment: SPR (Biacore X), VEGFR1 immobilised on a CM5 chip per paragraph 186; compared with the linear peptide CQRPPR at 1 mM

Sequence of vascular endothelial growth factor receptor 1 (VEGFR1) (P17948 27-756 limits assumed): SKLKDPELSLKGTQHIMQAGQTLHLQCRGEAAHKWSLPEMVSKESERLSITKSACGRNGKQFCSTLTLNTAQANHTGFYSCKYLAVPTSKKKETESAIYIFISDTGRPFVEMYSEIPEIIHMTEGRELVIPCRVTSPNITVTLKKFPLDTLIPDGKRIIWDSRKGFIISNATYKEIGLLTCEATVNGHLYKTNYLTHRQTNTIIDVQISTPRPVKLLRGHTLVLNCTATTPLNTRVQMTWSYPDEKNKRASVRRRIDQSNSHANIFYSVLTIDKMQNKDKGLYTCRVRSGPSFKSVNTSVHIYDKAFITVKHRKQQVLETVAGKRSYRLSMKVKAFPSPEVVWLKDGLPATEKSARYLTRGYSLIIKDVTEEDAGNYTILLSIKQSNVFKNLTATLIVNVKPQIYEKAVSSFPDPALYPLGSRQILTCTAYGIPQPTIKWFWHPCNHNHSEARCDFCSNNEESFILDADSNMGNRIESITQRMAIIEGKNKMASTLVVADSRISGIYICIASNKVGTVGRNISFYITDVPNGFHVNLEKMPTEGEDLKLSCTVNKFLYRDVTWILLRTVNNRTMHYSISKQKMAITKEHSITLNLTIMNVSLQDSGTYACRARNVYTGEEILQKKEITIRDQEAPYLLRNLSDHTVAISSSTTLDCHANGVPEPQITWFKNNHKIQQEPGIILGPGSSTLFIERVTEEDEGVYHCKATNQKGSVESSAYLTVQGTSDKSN

- pKd [1]: 6.67
- fold increase in affinity [2]: > 10000 fold
Substance: bipodal peptide drawn as CQRPPR-GGG-[W--W hairpin]-G-RIPKNR
